Measured values: patent US20180327495A1

Molecular target: Trop-2 (EGP-1) (human) (UniProt P09758)
Assay: cell-based or functional assay

Trop-2 (EGP-1) (human), sequence (P09758 27-323): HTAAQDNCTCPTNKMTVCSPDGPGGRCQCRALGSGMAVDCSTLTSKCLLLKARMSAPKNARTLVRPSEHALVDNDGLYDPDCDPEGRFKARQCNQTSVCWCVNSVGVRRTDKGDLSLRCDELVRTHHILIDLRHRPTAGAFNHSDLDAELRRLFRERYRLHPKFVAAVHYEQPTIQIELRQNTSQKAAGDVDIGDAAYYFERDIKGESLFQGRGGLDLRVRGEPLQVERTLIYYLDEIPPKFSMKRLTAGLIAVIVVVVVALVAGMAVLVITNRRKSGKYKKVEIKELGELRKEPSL

ADCC, specific lysis (PBMC effectors, effector to target ratio 100:1, antibody at 33.3 nM): 8.5%
Substance: hRS7 (anti-EGP-1 / anti-Trop-2 humanized MAb), unconjugated IgG (antibody)
